The source of these data is patent US20220325265A1, “GLUCOCEREBROSIDASE MUTANTS” (Hoffmann-la Roche Inc., priority 2019, published 2022).

Substitutions are numbered along the chain they refer to. Names may count otherwise. “And” between values parts separate entries of the source, which are not always exact repeats. Equal values may be shown once.

B1: L34Q: recombinant human β-glucocerebrosidase variant R495H/L34Q, S2 cells; Seq. Id. No. 6 (protein, listed as Homo sapiens)
chain: ARPCIPKSFGYSSVVCVCNATYCDSFDPPTFPAQGTFSRYESTRSGRRMELSMGPIQANHTGTGLLLTLQPEQKFQKVKGFGGAMTDAAALNILALSPPAQNLLLKSYFSEEGIGYNIIRVPMASCDFSIRTYTYADTPDDFQLHNFSLPEEDTKLKIPLIHRALQLAQRPVSLLASPWTSPTWLKTNGAVNGKGSLKGQPGDIYHQTWARYFVKFLDAYAEHKLQFWAVTAENEPSAGLLSGYPFQCLGFTPEHQRDFIARDLGPTLANSTHHNVRLLMLDDQRLLLPHWAKVVLTDPEAAKYVHGIAVHWYLDFLAPAKATLGETHRLFPNTMLFASEACVGSKFWEQSVRLGSWDRGMQYSHSIITNLLYHVVGWTDWNLALNPEGGPNWVRNFVDSPIIVDITKDTFYKQPMFYHLGHFSKFIPEGSQRVGLVASQKNDLDAVALMHPDGSAVVVVLNRSSKDVPLTIKDPAVGFLETISPGYSIHTYLWHRQ
notes: recombinant human β-glucocerebrosidase variant R495H/L34Q, S2 cells; Id; No. 6
B2: I5N: recombinant human β-glucocerebrosidase variant R495H/I5N, S2 cells; Seq. Id. No. 4 (protein, listed as Homo sapiens)
chain: B1 chain with I5N, Q34L
notes: recombinant human β-glucocerebrosidase variant R495H/I5N, S2 cells; Id; No. 4
B3: imiglucerase (protein, UniProt P04062 40-536, looked up, variant R495H)
Lysosomal acid …: B1 chain with Q34L
modifications: imiglucerase; CHO-produced
notes: Commercially available Cerezyme (imiglucerase, Genzyme), hGCase R495H produced in CHO cells

The first series can be described thus: Thermal shift assay via nanoDSF measurement (unfolding temperature). Conditions: Prometheus NT.Plex, 3° C./min, 0.06-0.5 mg/ml. It is filed as physicochemical. On the procedure: The thermal shift assay was performed via nanoDSF (differential scanning fluorimetry) measurements using Prometheus NT.Plex nanoDSF (NanoTemper Technologies). The measurement was initialized using the software PR.ThermoControl. Prometheus can precisely characterize samples by measuring the thermal unfolding, chemical denaturation and aggregation within one single run (NanoTemper Technologies, 2019). By gradually heating the sample until reaching 95° C., the protein unfolds. Thereby, the chemical environment of tryptophan residues changes (change in intrinsic tryptophan fluorescence of protein due to more aqueous environment), causing a red-shift in fluorescence (tryptophan fluorescence emission shift). By plotting the fluorescence ratio 350/330 nm against the temperature, the melting temperature Tm can be determined. Calculating the first derivative of raw data gives a peak curve with its maximum indicating the unfolding temperature Tm.
For the sample preparation, a concentration of 0.5 mg/ml was adjusted for the hGCase mutants. For variant I5N and R495HS2, protein concentrations of 0.075 mg/ml (I5N) and 0.06 mg/ml (R495HS2) were applied due to low protein yields. 15 μl total sample volume was uptaken in each capillary of the capillary rack (Prometheus NT.Plex Capillary Chips, NanoTemper) and placed in the device. The excitation power was adjusted to 20-80%, depending on the applied protein concentration. The gradually heating was set to 3° C./min until reaching 95° C. (20° C. was set as starting temperature). The evaluation and calculation of the first derivative was done using the NanoTemper PR.ThermoControl software, the final evaluation and graphing was done using the PR.StabilityAnalysis software.
On the one hand, a successively increasing temperature gradient was applied to measure melting temperatures of protein molecules via nanoDSF (differential scanning fluorimetry) measurement using Prometheus NT.Plex (NanoTemper Technologies, 2019). The sample is gradually heated by increasing the temperature until reaching 95° C. Thereby, the protein unfolds and tryptophan residues experience a change in chemical environment (exposure to a more aqueous environment), which changes the intrinsic tryptophan fluorescence of the protein, causing a red shift in the fluorescent spectrum (350/330 nm=tryptophan fluorescence emission shift) (Schubert, 2015). In FIG. 1, typical melting curves of such an unfolding experiment are shown.
In the upper section of the graphs (FIGS. 1 (A) and (B)), the raw data (progression curves) measured with nanoDSF is plotted, indicating the shift in the fluorescence ratio 350/330 nm during the course of the measurement with increasing temperature. The calculation of the first derivative, giving peak curves (lower section of graphs in (A) and (B)), was done according to default settings of the Software PR.StabilityAnalysis (table 2). Peak maxima (thermal unfolding transition midpoint) indicate the unfolding temperature Tm, where half of the proteins are unfold (Schubert, 2015).
On to B1, for which the “unfolding temperature Tm” value turned out to be 55.2 ± 0.0 °C.

Consider B2, for which the “unfolding temperature Tm” value amounted to 54.8 ± 0.4 °C.

As to B3, the “unfolding temperature Tm” value stood at 55.2 ± 0.0 °C.

The next series can be described thus: Determination of the kinetic parameters (Michaelis-Menten) with artificial substrate. Conditions: protein concentration used: 25 nM. In kind it is biochemical. On the procedure: The kinetic parameters were examined using the artificial substrate resorufin-β-glucopyranoside (Sigma-Aldrich). For the determination, final concentrations of substrate ranging from 4-500 μM were tested. The assay followed the activity assay instructions in section 2.3.5. 25 nM final protein concentration was used for each construct. The incubation time was set to 30 min to ensure measurements in the linear signal range. The kinetics were evaluated and plotted according to Michaelis-Menten (Cornish-Bowden, 2013; Johnson, 2015). KM, Vmax was calculated by GraphPad Prism7 applying the Michaelis-Menten fit equation provided by the program. The equation model follows: […]
with: • KM: Michaelis-Menten constant [μM] • Vmax: maximum velocity of reaction [μM/min]
The kinetic parameter kcat is defined as the catalytic constant, representing the turnover number of substrate to product per time unit (here per second) (Eisenthal et al., 2007). kcat can be calculated as follows: […]
with: • kcat: turnover number [min-1] • Vmax: maximum velocity of reaction [μM/min] • [E]tot.: total enzyme concentration [nM]
Another kinetic key parameter to describe the catalytic efficiency of enzymes is the parameter kcat/KM, measured in [μM−1*s−1] in this work (Eisenthal et al., 2007).
Determining enzyme kinetic key parameters gives solid information about the efficiency and efficacy of an enzyme and how certain mutations can impact its functionality. For the determination and comparison of the enzymatic performances, KM, Vmax and kcat as well as kcat/KM were calculated for the different hGCase variants, respectively (Eisenthal et al., 2007). The according assay was performed as described in section 2.5.5, all measured with the artificial substrate res-3-glc. KM and Vmax determination for representative mutant M53T/P55T was done applying the Michaelis-Menten curve fit (GraphPad Prism7; see equation 4) as shown in the following.
The kinetic raw data is depicted in FIG. 5 (A) with progression curves following pseudo first order in a linear measurement range with a good reproducibility and low variance. The slopes of the progression curves can be replotted, with velocities V [μM/min] plotted as a function of substrate concentration [S] applied, resulting in a typical course of a Michaelis-Menten curve (Cornish-Bowden, 2013; Johnson, 2015).
As to B1, the kcat is 0.11 s⁻¹.

For B2, the kcat turned out to be 0.09 s⁻¹.

Regarding B3, the kcat was found to be 0.09 s⁻¹.

The same series, now with this note: res-β-glc 4-500 μM, 25 nM protein.
On to B1, for which the Michaelis-Menten constant (Km) came out at 143 µM; the Vmax is 0.17 ± 0.01 µM/min and 0.17 µM/min.

On to B2, for which the Km came to 118 µM and the Vmax worked out at 0.14 µM/min.

B3: the Km is 131 µM and the maximal velocity (Vmax) is 0.14 µM/min.
